These results are taken from the supplement of paper PMC7125110.

± gives the standard error. This sample holds only a part of the variants without activity.

Sequences and labels used below:
B1: glmS ribozyme (parent)
chain: AUAAAAGCGCCAGAACUACAGAAAUGUAGUUGACGAGGAGGAGGUUUAUCGAAUUUUCGGCGGAUGCCUCCAAA

Details in all cases: with glucosamine-6-phosphate
In data set [1] the parent is B1. In words: self-cleavage kobs at 40 uM GlcN6P; higher = faster cleavage; RNA array. The essentials:
(§1)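 Tracking of barcoded ribozyme variants used a hybridised Cy3 probe at 37 °C, after in situ transcription by E. coli RNA polymerase on sequenced MiSeq chips. The flowed solution held 40 μM to 10 mM glucosamine-6-phosphate in HEPES/KCl/Mg(OAc)2 buffer, and imaging ran over ~14 h. kobs was taken from exponential decay fits of normalised per-tile medians, and kcat and KM from weighted Michaelis–Menten fits.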

Variants of B1 are the subject of data set [2]. The data set is described as follows: self-cleavage kobs at 160 uM GlcN6P; higher = faster cleavage; RNA array. The essentials: as §1
Variants of B1 are the subject of data set [3]. In words: self-cleavage kobs at 640 uM GlcN6P; higher = faster cleavage; RNA array. The essentials:
as §1

In data set [4] the parent is B1. The data set is described as follows: self-cleavage kobs at 10000 uM GlcN6P; higher = faster cleavage; RNA array. The essentials: as §1
In data set [5] the parent is B1. The data set is described as follows: self-cleavage kobs at 2500 uM GlcN6P; higher = faster cleavage; RNA array. The essentials: as §1

Regarding G41U U45C U54G C67U C71G, the “self-cleavage kobs at 40 uM GlcN6P” value with glucosamine-6-phosphate [1] is < 1e-05 s⁻¹. Moreover, the “self-cleavage kobs at 160 uM GlcN6P” value in the data set with glucosamine-6-phosphate [2] is < 1e-05 s⁻¹. In the data set with glucosamine-6-phosphate [3], the “self-cleavage kobs at 640 uM GlcN6P” value is < 1e-05 s⁻¹.
For the variant C34U C58G U65G C70A, the “self-cleavage kobs at 40 uM GlcN6P” value with glucosamine-6-phosphate [1] was 0.000236 ± 8.2e-05 s⁻¹. In addition, the “self-cleavage kobs at 640 uM GlcN6P” value with glucosamine-6-phosphate [3] was determined as 0.000187 ± 7.4e-05 s⁻¹. The “self-cleavage kobs at 10000 uM GlcN6P” value with glucosamine-6-phosphate [4] is 0.000376 ± 0.00015 s⁻¹.
Consider A14U A15G G43C, for which, in the data set with glucosamine-6-phosphate [1], the “self-cleavage kobs at 40 uM GlcN6P” value is < 1e-05 s⁻¹. For the same variant, the “self-cleavage kobs at 640 uM GlcN6P” value with glucosamine-6-phosphate [3] was < 1e-05 s⁻¹. For the same variant, in the data set with glucosamine-6-phosphate [5], the “self-cleavage kobs at 2500 uM GlcN6P” value was < 1e-05 s⁻¹.
For the variant C8U A53U, the “self-cleavage kobs at 40 uM GlcN6P” value with glucosamine-6-phosphate [1] was < 1e-05 s⁻¹. For the same variant, the “self-cleavage kobs at 640 uM GlcN6P” value in the data set with glucosamine-6-phosphate [3] was < 1e-05 s⁻¹. For the same variant, the “self-cleavage kobs at 10000 uM GlcN6P” value in the data set with glucosamine-6-phosphate [4] is < 1e-05 s⁻¹.
Consider G62A A64U, for which, in the data set with glucosamine-6-phosphate [1], the “self-cleavage kobs at 40 uM GlcN6P” value was < 1e-05 s⁻¹. In addition, the “self-cleavage kobs at 640 uM GlcN6P” value in the data set with glucosamine-6-phosphate [3] was < 1e-05 s⁻¹. Moreover, in the data set with glucosamine-6-phosphate [4], the “self-cleavage kobs at 10000 uM GlcN6P” value is < 1e-05 s⁻¹.
Turning to A33C G43A G44A, the “self-cleavage kobs at 40 uM GlcN6P” value with glucosamine-6-phosphate [1] is < 1e-05 s⁻¹. The “self-cleavage kobs at 10000 uM GlcN6P” value in the data set with glucosamine-6-phosphate [4] is < 1e-05 s⁻¹.
For the variant A36G A48C, the “self-cleavage kobs at 40 uM GlcN6P” value in the data set with glucosamine-6-phosphate [1] is < 1e-05 s⁻¹. In the data set with glucosamine-6-phosphate [2], the “self-cleavage kobs at 160 uM GlcN6P” value is < 1e-05 s⁻¹. For the same variant, the “self-cleavage kobs at 640 uM GlcN6P” value in the data set with glucosamine-6-phosphate [3] was < 1e-05 s⁻¹. Also, the “self-cleavage kobs at 10000 uM GlcN6P” value with glucosamine-6-phosphate [4] was < 1e-05 s⁻¹.
In the case of U55G C67G, in the data set with glucosamine-6-phosphate [1], the “self-cleavage kobs at 40 uM GlcN6P” value worked out at 0.000127 ± 1.4e-05 s⁻¹. The “self-cleavage kobs at 160 uM GlcN6P” value with glucosamine-6-phosphate [2] worked out at 0.000234 ± 5.1e-05 s⁻¹. For the same variant, the “self-cleavage kobs at 640 uM GlcN6P” value in the data set with glucosamine-6-phosphate [3] turned out to be 0.000819 ± 0.00012 s⁻¹. In the data set with glucosamine-6-phosphate [5], the “self-cleavage kobs at 2500 uM GlcN6P” value stood at 0.000472 ± 0.0001 s⁻¹. Further, the “self-cleavage kobs at 10000 uM GlcN6P” value with glucosamine-6-phosphate [4] was 0.00597 ± 0.00099 s⁻¹.
As to G32C A52C, in the data set with glucosamine-6-phosphate [1], the “self-cleavage kobs at 40 uM GlcN6P” value is < 1e-05 s⁻¹. Besides, the “self-cleavage kobs at 160 uM GlcN6P” value with glucosamine-6-phosphate [2] was < 1e-05 s⁻¹. The “self-cleavage kobs at 640 uM GlcN6P” value in the data set with glucosamine-6-phosphate [3] was < 1e-05 s⁻¹. The “self-cleavage kobs at 2500 uM GlcN6P” value in the data set with glucosamine-6-phosphate [5] was < 1e-05 s⁻¹.
As for A6G A12G G66U, in the data set with glucosamine-6-phosphate [1], the “self-cleavage kobs at 40 uM GlcN6P” value is < 1e-05 s⁻¹.
Still for that read-out and setting: with G9U A39U C68U the figure was < 1e-05 s⁻¹.
Regarding C10A U45G A53G, in the data set with glucosamine-6-phosphate [1], the “self-cleavage kobs at 40 uM GlcN6P” value was < 1e-05 s⁻¹.
Regarding U30G A48G C71U, the “self-cleavage kobs at 40 uM GlcN6P” value with glucosamine-6-phosphate [1] was < 1e-05 s⁻¹. Further, the “self-cleavage kobs at 640 uM GlcN6P” value in the data set with glucosamine-6-phosphate [3] was < 1e-05 s⁻¹.
On to G43U C50G U54G A64U C71U, for which the “self-cleavage kobs at 40 uM GlcN6P” value in the data set with glucosamine-6-phosphate [1] turned out to be 7.77e-05 ± 3e-05 s⁻¹. In the data set with glucosamine-6-phosphate [4], the “self-cleavage kobs at 10000 uM GlcN6P” value stood at 0.00156 ± 0.00062 s⁻¹.
In the case of G7U C16G G59A, the “self-cleavage kobs at 40 uM GlcN6P” value with glucosamine-6-phosphate [1] was < 1e-05 s⁻¹. Further, the “self-cleavage kobs at 640 uM GlcN6P” value with glucosamine-6-phosphate [3] was < 1e-05 s⁻¹. In addition, the “self-cleavage kobs at 10000 uM GlcN6P” value with glucosamine-6-phosphate [4] was < 1e-05 s⁻¹.
As for G41A G60U, the “self-cleavage kobs at 40 uM GlcN6P” value with glucosamine-6-phosphate [1] is < 1e-05 s⁻¹. Further, the “self-cleavage kobs at 640 uM GlcN6P” value with glucosamine-6-phosphate [3] is < 1e-05 s⁻¹. Besides, in the data set with glucosamine-6-phosphate [4], the “self-cleavage kobs at 10000 uM GlcN6P” value is < 1e-05 s⁻¹.
On to G40A U45G, for which the “self-cleavage kobs at 40 uM GlcN6P” value with glucosamine-6-phosphate [1] was 5.96e-05 ± 1.5e-05 s⁻¹. In addition, in the data set with glucosamine-6-phosphate [3], the “self-cleavage kobs at 640 uM GlcN6P” value was found to be 0.000563 ± 0.00021 s⁻¹. In the data set with glucosamine-6-phosphate [5], the “self-cleavage kobs at 2500 uM GlcN6P” value was 0.000133 ± 4.2e-05 s⁻¹. The “self-cleavage kobs at 10000 uM GlcN6P” value with glucosamine-6-phosphate [4] came out at 0.000145 ± 3.5e-05 s⁻¹.
In the case of C8A U55G A64C U69G, the “self-cleavage kobs at 40 uM GlcN6P” value with glucosamine-6-phosphate [1] turned out to be 0.000295 ± 0.00013 s⁻¹. In addition, the “self-cleavage kobs at 10000 uM GlcN6P” value with glucosamine-6-phosphate [4] is 5.15e-05 ± 2.4e-05 s⁻¹.
On the same counts, the results for G43C U56A C61G are < 1e-05 s⁻¹ and < 1e-05 s⁻¹.
With A6U A12U G43A U47G, the “self-cleavage kobs at 40 uM GlcN6P” value in the data set with glucosamine-6-phosphate [1] was < 1e-05 s⁻¹.
Turning to C50A G59C, the “self-cleavage kobs at 40 uM GlcN6P” value with glucosamine-6-phosphate [1] was < 1e-05 s⁻¹. Further, the “self-cleavage kobs at 640 uM GlcN6P” value with glucosamine-6-phosphate [3] is < 1e-05 s⁻¹. Moreover, the “self-cleavage kobs at 2500 uM GlcN6P” value with glucosamine-6-phosphate [5] was < 1e-05 s⁻¹. Moreover, in the data set with glucosamine-6-phosphate [4], the “self-cleavage kobs at 10000 uM GlcN6P” value is < 1e-05 s⁻¹.
For C8A G43A, the “self-cleavage kobs at 40 uM GlcN6P” value with glucosamine-6-phosphate [1] is < 1e-05 s⁻¹. Besides, the “self-cleavage kobs at 160 uM GlcN6P” value in the data set with glucosamine-6-phosphate [2] is < 1e-05 s⁻¹. Moreover, in the data set with glucosamine-6-phosphate [3], the “self-cleavage kobs at 640 uM GlcN6P” value was < 1e-05 s⁻¹. For the same variant, the “self-cleavage kobs at 2500 uM GlcN6P” value in the data set with glucosamine-6-phosphate [5] is < 1e-05 s⁻¹.
On to C61U C71A, for which, in the data set with glucosamine-6-phosphate [1], the “self-cleavage kobs at 40 uM GlcN6P” value was < 1e-05 s⁻¹. Further, the “self-cleavage kobs at 160 uM GlcN6P” value with glucosamine-6-phosphate [2] is < 1e-05 s⁻¹. In addition, the “self-cleavage kobs at 640 uM GlcN6P” value with glucosamine-6-phosphate [3] is < 1e-05 s⁻¹. In the data set with glucosamine-6-phosphate [5], the “self-cleavage kobs at 2500 uM GlcN6P” value is < 1e-05 s⁻¹.
